From patent US10533231B2, “Artificial bioluminescent enzyme” (NATIONAL INSTITUTE OF ADVANCED INDUSTRIAL SCIENCE AND …, priority 2012, dated 2020)
Changes are numbered by the printed parent chain. Entries after “also recorded” stand apart in the source; their conditions may differ.

B1: ALuc31: artificial luciferase containing a His tag, SEQ ID NO: 33 (protein)
chain: MMGIKVLFALICFALVQANHHHHHHHHDIVGVEGKFGTTDLETDLFTIVEDMNVISRDTDVDANRADRGRRGELPGKKLPLEVLKELEANAQKAGCTRGCLICLSHIKCTAKMKKWLPGRCESWEGDKETGQGGIGEAIVDIPEIPGFKELAPMEQFIAQVDLCADCTTGCLKGLANVKCSALLKKWLPSRCAGFADKIQAQVDTIKGAGGS
modifications: His tag; Synthetic ALuc31
B2: ALuc32: artificial luciferase containing a c-Myc-tag, SEQ ID NO: 34 (protein)
chain: B1 chain with H20E, H21Q, H22K, H23L, H24I, H25S, H26E, H27E, I29L, E73K
modifications: c-Myc tag; Synthetic ALuc32
B3: ALuc24: artificial luciferase, SEQ ID NO: 27 (protein)
chain: MMGIKVLFALICFALVQANPTENKDDIDIVGVEGKFGTTDLETDLFTIVEDMNVISRDTDVDANRADRGRRGKLPGKKLPLEVLKELEANAQKAGCTRGCLICLSHIKCTAKMKKWLPGRCESWEGDKETGQGGIGEAIVDIPEIPGFKNMAPMEQFIAQVDLCADCTTGCLKGLANVKCSNLLKKWLPSRCKGFANKIQAEVDTIKGLGGS
modifications: Synthetic ALuc24
B4: ALuc23: artificial luciferase, SEQ ID NO: 16 (protein)
chain: B3 chain with N150E, M151L, N182A, K193A, N197D, E202Q, L209A
modifications: Synthetic ALuc23
B5: ALuc22: artificial luciferase, SEQ ID NO: 15 (protein)
chain: MMGVKLIFAVLCVAVAQANATINENFEDIDLVAIGGSFADLETDLFTIVEDMNVISRDTDVDANRGGRGRRGKLPGKKLPLEVLKELEANAQKAGCTRGCLICLSHIKCTAKMKKWLPGRCESWEGDKETGQGGIGEAIVDIPEIPGFKDLEPMEQFIAQVDLCVDCTTGCLKGLANVKCSDLLKKWLPSRCATFASKIQAQVDKIKGAGGS
modifications: Synthetic ALuc22
B6: ALuc25: artificial luciferase, SEQ ID NO: 17 (protein)
chain: B5 chain with D150E, E152A, V165A, D182A, T194G, S197D, K205T
modifications: Synthetic ALuc25

Assays:
COS-7 cells [1] = test: Enzymatic activity confirmation of ALuc (section 3-1, 3-2); assay type: cell-based, African monkey; settings: vs conventional copepod luciferases
Experimental: First, using a known lipid reagent for gene introduction, an expression vector encoding ALuc is introduced into African monkey-derived COS-7 cells; as a control, an expression vector having a known GLuc without any mutation into the cells is also introduced in the same manner. At a predetermined time (from 10 to 20 hours, for example, 16 hours) after the introduction of the vector, a cell lysate is prepared using a known lysis reagent.
Thereafter, the cell lysate is mixed with a known substrate solution containing coelenterazine, and its color intensity, temporal stability in luminescence, etc., are measured.
The luminescence intensity may be found by measuring the intensity at a specific wavelength using a known luminescence spectrophotometer after addition of a known substrate. By performing the measurement every minute, the temporal stability in luminescence can be evaluated. To measure a shift to a longer wavelength, scanning of the entire wavelength is necessary.

COS-7 cells [2] = test: Luminescence of ALuc25 to ALuc32 in lysate and medium (Example 1-18); assay type: cell-based; settings: 20 hours after plasmid introduction
Experimental: After the insertion of a gene encoding an enzyme sequence as mentioned above into a mammalian expression vector (pcDNA3.1 (+)), each plasmid was introduced into COS-7 cells. By the transformation of these cells, each luciferase was expressed, and some of the luciferase was secreted out of the cells and some of the luciferase retained in the cells. 20 hours after the plasmid introduction, media of the cells were sampled, and the remaining cells were lysed with a lysis buffer (lysate preparation). Immediately after 50 μL of assay solution (containing a substrate) was simultaneously added to each prepared medium (5 μL) or lysate (5 μL), the luminescence value was measured using a luminescence analyzer (LAS-4000; FujiFilm) (n=3) (FIG. 18).

COS-7 cells [3] = test: Luminescence characteristics of tag-containing ALucs (Example 1-22); assay type: cell-based; settings: medium two days after gene transfer
Experimental: To compare the relative luminescence intensity of these luciferases, the following experiment was conducted. First, a gene encoding each luciferase was subcloned into pcDNA3.1 (+), which is a eukaryotic expression vector, and each vector was introduced into COS-7 cells. Two days after gene transfer, the relative luminescence intensity of luciferase secreted into each medium was compared using a luminescence reagent produced by Promega.

[4] = Temporal change in luminescence after substrate injection, medium 25 days after expression (Example 1-19); assay type: biochemical; settings: for temporal change of luminescence after substrate injection: medium 25 days after expression
Experimental: 50 μL of an assay solution (containing native coelenterazine, produced by Promega) was added to 5 μL of each medium 25 days after the expression, and the luminescence value (enzymatic activity) was measured using an LAS-4000 (produced by FujiFilm).

[5] = Prolonged activity stability of ALucs secreted in medium (Example 1-19); assay type: physicochemical; settings: Day 0 to Day 25
Experimental: The prolonged activity stability of the artificial luciferases (ALucs) developed in the present invention was examined. First, a plasmid expressing each artificial luciferase (ALuc16, ALuc22, ALuc23, ALuc24, ALuc25, and ALuc30) (in the figure, each is referred to as A16, A22, A23, A24, A25, and A30) was introduced into COS-7 cells, and then culturing was continued for 24 hours. By the culturing, each artificial luciferase was secreted into the medium. The artificial luciferase secreted in the medium was collected, and a difference in enzymatic activity was measured under the same conditions in the following manner. On the first day (Day 0), 50 μL of assay solution (containing native coelenterazine, produced by Promega) was added to 5 μL of each medium, and the luminescence value (enzymatic activity) was measured using an LAS-4000 (produced by FujiFilm). In the same manner, the luminescence value on Day 8, Day 16, and Day 25 was compared with the luminescence value on Day 0 (FIG. 19 (A)).

COS-7 cells [6] = test: Luminescence stability of ALucs after substrate injection (Example 1-3); assay type: cell-based, African green monkey; settings: Promega lysis and reaction solution
Experimental: The luminescence stability of the artificial luciferases (ALucs) of the present invention was examined in various respects (FIG. 3). COS-7 cells containing each luciferase gene were cultured for 9 hours, and treated with a cell lysis solution produced by Promega for 20 minutes. Temporal changes in luciferase luminescence intensity after the introduction of a substrate-containing reaction solution produced by Promega were observed every five minutes (FIG. 3A).
This experiment was expanded to artificial luciferases ALuc16 to ALuc25 (FIG. 3BC).

COS-7 cells [7] = test: Comparison of luminescence intensity of ALucs (Example 1-2); assay type: cell-based, African green monkey; settings: COS-7 cultured overnight, Promega assay solution, LAS-4000
Description: The artificial luciferase (ALuc) genes synthesized by the above process were subcloned into mammalian cell expression vectors (pcDNA3.1 (+)). Each expression vector was transfected with African green monkey kidney-derived COS-7 cells, and the luminescence intensity, luminescence stability, and red-shifted degree of artificial luciferases (ALucs) were compared (FIGS. 2 to 5).
First, the luminescence intensity of artificial luciferases (ALucs) was compared (FIG. 2). For the comparison, COS-7 cells containing a vector encoding each luciferase were cultured overnight, and then the relative luminescence intensity was measured by using an assay solution, which is a mixture of a cell lysis solution and a substrate, produced by Promega, and a luminescence image analyzer (LAS-4000).

[8] = Heat resistance of ALucs in lysate (Example 1-4); assay type: physicochemical; settings: for change of luminescence intensity by heating: 80° C. for 10 minutes
Experimental: The heat resistance and degree of extracellular secretion of artificial luciferases of the present invention were measured (FIG. 4). First, to measure heat resistance, COS-7 cells containing each luciferase were lysed in cell lysis solutions produced by Promega to prepare lysates. Subsequently, same samples were allowed to stand at room temperature or heated at 80° C. for 10 minutes, and changes in luminescence intensity were compared by using a (substrate-containing) reaction solution produced by Promega.

COS-7 cells [9] = test: Degree of extracellular secretion of ALucs (Example 1-4); assay type: cell-based, African green monkey; settings: luminescence intensity of the medium, overnight culture
Experimental: Further, each luciferase (ALuc) was introduced into COS-7 cells, culturing was performed overnight, and then the amount of each luciferase (ALuc) secreted from the cells was measured based on the luminescence intensity of the medium (FIG. 4B).

Row | Molecule | luminescence stability (general statement) (COS-7 cells [1]) | luminescence from cell medium (COS-7 cells [2]) | luminescence value from lysate (COS-7 cells [2]) | relative luminescence intensity (COS-7 cells [3]) | temporal change of luminescence after substrate injection [4] | prolonged enzymatic activity stability [5] | luminescence intensity (initial) (COS-7 cells [6]) | luminescence stability / sustainability after substrate injection (COS-7 cells [6]) | time of maximum luminescence value after infusion of coelenterazine ([4]; after long-term conservation (25 days)) [min] | luminescence intensity higher than that of conventional GLuc, Renilla luciferase and MpLuc4 (COS-7 cells [7]) | change of luminescence intensity by heating [8] | extracellular secretion (COS-7 cells [9]) | reduction of luminescence intensity by heating ([8]; 80° C. for 10 minutes vs room temperature)
1 | B1 | remarkably stable luminescence signals | strong bioluminescence | extremely higher than those of conventional GLuc and MpLuc4 | – | – | – | – | – | – | – | – | – | –
2 | B2 | remarkably stable luminescence signals | – | – | relatively poor luminescence intensity | – | – | – | – | – | – | – | – | –
3 | B3 | remarkably stable luminescence signals | – | – | – | abrupt increase in luminescence value after 6 minutes | maintained stable enzymatic activity until Day 25 | slightly low in luminescence intensity; also recorded: relatively low luminescence intensity | excellent in luminescence stability; also recorded: extremely higher luminescence sustainability than other artificial luciferases | – | – | – | – | –
4 | B4 | remarkably stable luminescence signals | – | – | – | several times higher | – | advantageous initial luminescence intensity | – | 12 | about 50 folds | a remarkable reduction in luminescence intensity that may be due to heating was not observed | relatively high extracellular secretion | –
5 | B5 | remarkably stable luminescence signals | – | – | – | – | significant decrease in enzymatic activity | advantageous initial luminescence intensity | decreased to about half of the original luminescence intensity after 6 minutes | – | about 50 folds | significantly decreased | low extracellular secretion | about 40%
6 | B6 | remarkably stable luminescence signals | – | extremely higher than those of conventional GLuc and MpLuc4 | – | – | maintained stable enzymatic activity until Day 25 | advantageous initial luminescence intensity | – | – | about 50 folds | a remarkable reduction in luminescence intensity that may be due to heating was not observed | low extracellular secretion | –
